This note sets out measurements from paper PMC13382767.

The target of this assay is apo-CA-HNifU (N-terminal His-tagged NifU with cysteines 35, 62, 106, 272 and 275 mutated to alanine, core cluster removed) (A. vinelandii) (UniProt P05340).
Sequence of UniProt P05340 (P05340 other isoform, or with tags, fused parts or gaps, change not shown): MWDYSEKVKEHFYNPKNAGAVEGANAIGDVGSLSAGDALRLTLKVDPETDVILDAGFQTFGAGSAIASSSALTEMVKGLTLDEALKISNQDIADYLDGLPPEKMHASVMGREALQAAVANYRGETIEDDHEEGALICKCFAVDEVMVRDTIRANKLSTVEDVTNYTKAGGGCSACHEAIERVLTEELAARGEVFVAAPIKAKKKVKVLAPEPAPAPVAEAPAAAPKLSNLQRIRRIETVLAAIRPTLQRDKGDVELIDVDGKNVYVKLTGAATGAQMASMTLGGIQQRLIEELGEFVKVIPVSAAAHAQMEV

The substance “C-terminal Strep-tagged A. vinelandii GrxD (GrxDS) (natural protein)” came in with an iron transferred from GrxDS to EDTA-treated CA-HNifU (iron in the flowthrough NifU after incubation and separation in a Strep-column) of 1 iron; an iron transferred from GrxDS to urea-treated apo-CA-HNifU (iron in the flowthrough NifU after incubation and separation in a Strep-column) of 1.8 irons.
